Test results as given in patent US20170016905A1 (VAR2 PHARMACEUTICALS, published 2017).

Target: T1, CSPG (bovine) (D8428, Sigma) (bovine, UniProt P21793 31-360, carries chondroitin sulfate A (CSA) glycosaminoglycan chain(s); the filing attributes the binding of VAR2CSA to this glycan)
T1 construct: also called chondroitin sulfate proteoglycan; CSA proteoglycan
Experiment: quartz crystal microbalance (Attana A100); legend: N/A = no KD value could be determined, due to a lack of binding to CSA

T1 sequence (P21793 31-360): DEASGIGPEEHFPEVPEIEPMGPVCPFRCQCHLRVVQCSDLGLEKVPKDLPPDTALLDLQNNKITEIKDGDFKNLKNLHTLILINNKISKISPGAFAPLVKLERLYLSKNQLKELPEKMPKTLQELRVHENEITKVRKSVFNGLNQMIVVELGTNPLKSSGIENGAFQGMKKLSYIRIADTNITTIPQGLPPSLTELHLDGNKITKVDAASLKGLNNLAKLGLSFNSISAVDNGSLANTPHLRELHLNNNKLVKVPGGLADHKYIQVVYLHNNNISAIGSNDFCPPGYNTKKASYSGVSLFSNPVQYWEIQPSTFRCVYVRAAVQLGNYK

B1: ID1-DBL2Xa (3D7, Baculo) (other)
chain: LSFILNSSDANNPSEKIQKNNDEVCNCNESGIASVEQEQISDPSSNKTCITHSSIKANKKKVCKHVKLGVRENDKDLRVCVIEHTSLSGVENCCCQDFLRILQENCSDNKSGSSSNGSCNNKNQEACEKNLEKVLASLTNCYKCDKCKSEQSKKNNKNWIWKKSSGKEGGLQKEYANTIGLPPRTQSLCLVVCLDEKGKKTQELKNIRTNSELLKEWIIAAFHEGKNLKPSHEKKNDDNGKKLCKALEYSFADYGDLIKGTSIWDNEYTKDLELNLQKIFGKLFRKYIKKNNTAEQDTSYSSLDELRESWWNTNKKYIWLAMKHGAGMNSTTCCGDGSVTGSGSSCDDIPTIDLIPQYLRFLQEWVEHFCKQRQEKVKPVIENCKSCKESGGTCNGECKTECKNKCEVYKKFIEDCKGGDGTAGSSWVKRWDQIYKRYSKYIEDAKRNRKAGTKNCGPSSTTNAA
notes: not shown: V5 and His tag at the C-terminal (modified pAcGP67-A)
  binding result: no binding

B2: DBL1X-DBL2Xa (FCR3, Baculo) (other)
chain: HSDSGKYDPCEKKLPPYDDNDQWKCQQNSSDGSGKPENICVPPRRERLCTYNLENLKFDKIRDNNAFLADVLLTARNEGEKIVQNHPDTNSSNVCNALERSFADLADIIRGTDQWKGTNSNLEKNLKQMFAKIRENDKVLQDKYPKDQKYTKLREAWWNANRQKVWEVITCGARSNDLLIKRGWRTSGKSDRKKNFELCRKCGHYEKEVPTKLDYVPQFLRWLTEWIEDFYREKQNLIDDMERHREECTREDHKSKEGTSYCSTCKDKCKKYCECVKKWKTEWENQENKYKDLYEQNKNKTSQKNTSRYDDYVKDFFEKLEANYSSLENYIKGDPYFAEYATKLSFILNPSDANNPSGETANHNDEACNCNESGISSVGQAQTSGPSSNKTCITHSSIKTNKKKECKDVKLGVRENDKDLKICVIEDTSLSGVDNCCCQDLLGILQENCSDNKRGSSSNDSCDNKNQDECQKKLEKVFASLTNGYKCDKCKSGTSRSKKKWIWKKSSGNEEGLQEEYANTIGLPPRTQSLYLGNLPKLENVCEDVKDINFDTKEKFLAGCLIVSFHEGKNLKKRYPQNKNSGNKENLCKALEYSFADYGDLIKGTSIWDNEYTKDLELNLQNNFGKLFGKYIKKNNTAEQDTSYSSLDELRESWWNTNKKYIWTAMKHGAEMNITTCNADGSVTGSGSSCDDIPTIDLIPQYLRFLQEWVENFCEQRQAKVKDVITNCKSCKESGNKCKTECKTKCKDECEKYKKFIEACGTAGGGIGTAGSPWSKRWDQIYKRYSKHIEDAKRNRKAGTKNCGTSSTTNAA
notes: Range derived by me from the FCR3 DBL1X forward primer and the FCR3 DBL2Xa reverse primer (STTNAA), which ends 93 residues before the DBL2Xb border; not shown: V5 and His tag at the C-terminal (modified pAcGP67-A)
  binding result: no binding
